Measured values: the supplement of paper PMC10065799, “High-throughput profiling of sequence recognition by tyrosine kinases and SH2 domains using bacterial peptide display” (eLife, 2023)

What was measured:
[1] = target: Hck (UniProt P08631); assay: phosphorylation enrichment, bacterial display (enrichment ratio); higher = better substrate or ligand; peptides without Tyr show the background
[2] = target: FGFR3 (UniProt P22607); assay: as above
[3] = test system: c-Abl (mouse); assay: as above
[4] = target: FGFR1 (UniProt P11362); assay: as above
Sequence of FGFR1 (P11362 whole entry, looked up): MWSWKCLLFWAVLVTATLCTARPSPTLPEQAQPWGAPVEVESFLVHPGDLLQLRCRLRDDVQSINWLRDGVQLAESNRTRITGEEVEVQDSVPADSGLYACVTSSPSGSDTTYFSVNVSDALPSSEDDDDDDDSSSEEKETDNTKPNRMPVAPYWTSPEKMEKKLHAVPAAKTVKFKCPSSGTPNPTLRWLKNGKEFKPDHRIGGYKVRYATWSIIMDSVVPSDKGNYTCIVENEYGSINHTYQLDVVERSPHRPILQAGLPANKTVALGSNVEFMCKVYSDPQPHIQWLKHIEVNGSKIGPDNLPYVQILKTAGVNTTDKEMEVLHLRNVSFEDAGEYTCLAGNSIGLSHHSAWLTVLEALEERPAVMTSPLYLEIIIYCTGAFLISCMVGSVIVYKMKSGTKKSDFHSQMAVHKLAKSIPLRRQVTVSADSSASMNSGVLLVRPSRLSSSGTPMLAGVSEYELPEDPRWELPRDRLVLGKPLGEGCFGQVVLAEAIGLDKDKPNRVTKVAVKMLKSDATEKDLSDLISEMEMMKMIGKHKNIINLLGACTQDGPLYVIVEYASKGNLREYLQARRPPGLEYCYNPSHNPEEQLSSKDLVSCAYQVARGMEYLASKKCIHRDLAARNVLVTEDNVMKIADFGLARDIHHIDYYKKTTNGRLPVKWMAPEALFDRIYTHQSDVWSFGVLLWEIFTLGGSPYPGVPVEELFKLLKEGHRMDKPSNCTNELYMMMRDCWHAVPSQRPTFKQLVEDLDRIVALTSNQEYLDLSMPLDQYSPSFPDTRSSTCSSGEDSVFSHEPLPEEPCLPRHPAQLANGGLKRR

[5] = target: EPHB1 (UniProt P54762); assay: as above
[6] = target: Jak2 (UniProt O60674); assay: as above
Sequence of Jak2 (O60674 whole entry, looked up): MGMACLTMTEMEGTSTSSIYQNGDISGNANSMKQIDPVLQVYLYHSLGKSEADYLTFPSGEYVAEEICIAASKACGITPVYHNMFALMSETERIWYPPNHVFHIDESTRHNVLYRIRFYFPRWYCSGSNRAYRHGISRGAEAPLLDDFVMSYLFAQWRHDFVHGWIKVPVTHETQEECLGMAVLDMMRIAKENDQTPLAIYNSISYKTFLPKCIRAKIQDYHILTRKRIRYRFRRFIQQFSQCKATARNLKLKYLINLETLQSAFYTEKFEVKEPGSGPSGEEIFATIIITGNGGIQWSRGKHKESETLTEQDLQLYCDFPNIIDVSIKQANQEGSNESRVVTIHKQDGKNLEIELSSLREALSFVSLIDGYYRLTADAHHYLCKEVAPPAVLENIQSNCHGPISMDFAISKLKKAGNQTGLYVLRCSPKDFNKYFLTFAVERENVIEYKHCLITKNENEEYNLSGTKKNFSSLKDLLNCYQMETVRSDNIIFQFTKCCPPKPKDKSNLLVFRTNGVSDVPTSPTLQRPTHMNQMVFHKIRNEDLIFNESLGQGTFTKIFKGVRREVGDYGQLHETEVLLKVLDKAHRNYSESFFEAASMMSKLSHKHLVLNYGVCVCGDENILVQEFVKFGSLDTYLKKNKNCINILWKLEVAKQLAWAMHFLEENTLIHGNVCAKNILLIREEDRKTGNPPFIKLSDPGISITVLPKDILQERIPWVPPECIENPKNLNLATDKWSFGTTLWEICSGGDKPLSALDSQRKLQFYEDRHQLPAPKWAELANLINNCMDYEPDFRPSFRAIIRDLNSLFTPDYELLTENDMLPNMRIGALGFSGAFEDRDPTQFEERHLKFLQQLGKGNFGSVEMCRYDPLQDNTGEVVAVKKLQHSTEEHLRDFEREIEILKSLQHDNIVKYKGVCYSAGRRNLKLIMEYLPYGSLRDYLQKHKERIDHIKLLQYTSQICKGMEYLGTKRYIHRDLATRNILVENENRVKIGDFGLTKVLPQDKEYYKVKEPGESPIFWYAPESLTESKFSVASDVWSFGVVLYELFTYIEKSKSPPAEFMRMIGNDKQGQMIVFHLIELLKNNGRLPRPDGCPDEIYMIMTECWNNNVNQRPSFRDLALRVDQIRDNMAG

[7] = target: Fes (UniProt P07332); assay: as above
[8] = target: Fyn (UniProt P06241); assay: as above
Sequence of Fyn (P06241 whole entry, looked up): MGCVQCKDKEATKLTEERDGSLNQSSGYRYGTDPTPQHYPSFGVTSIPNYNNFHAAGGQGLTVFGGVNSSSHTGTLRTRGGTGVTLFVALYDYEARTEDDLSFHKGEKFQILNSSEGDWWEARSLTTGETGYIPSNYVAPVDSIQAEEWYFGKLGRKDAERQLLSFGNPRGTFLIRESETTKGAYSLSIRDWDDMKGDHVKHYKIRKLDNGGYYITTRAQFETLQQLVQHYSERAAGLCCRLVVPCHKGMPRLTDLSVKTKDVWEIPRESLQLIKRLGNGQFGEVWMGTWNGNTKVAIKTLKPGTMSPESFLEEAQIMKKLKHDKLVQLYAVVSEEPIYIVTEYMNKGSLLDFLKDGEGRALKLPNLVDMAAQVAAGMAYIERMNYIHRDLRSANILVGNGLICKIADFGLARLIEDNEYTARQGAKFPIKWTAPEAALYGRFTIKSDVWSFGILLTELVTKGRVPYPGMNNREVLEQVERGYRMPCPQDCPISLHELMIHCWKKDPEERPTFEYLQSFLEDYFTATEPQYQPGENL

[9] = test system: c-Src; assay: as above
[10] = target: EPHB2 (UniProt P29323); assay: as above
[11] = test system: AncSZ; assay: as above
[12] = target: MERTK (UniProt Q12866); assay: as above
Sequence of MERTK (Q12866 whole entry, looked up): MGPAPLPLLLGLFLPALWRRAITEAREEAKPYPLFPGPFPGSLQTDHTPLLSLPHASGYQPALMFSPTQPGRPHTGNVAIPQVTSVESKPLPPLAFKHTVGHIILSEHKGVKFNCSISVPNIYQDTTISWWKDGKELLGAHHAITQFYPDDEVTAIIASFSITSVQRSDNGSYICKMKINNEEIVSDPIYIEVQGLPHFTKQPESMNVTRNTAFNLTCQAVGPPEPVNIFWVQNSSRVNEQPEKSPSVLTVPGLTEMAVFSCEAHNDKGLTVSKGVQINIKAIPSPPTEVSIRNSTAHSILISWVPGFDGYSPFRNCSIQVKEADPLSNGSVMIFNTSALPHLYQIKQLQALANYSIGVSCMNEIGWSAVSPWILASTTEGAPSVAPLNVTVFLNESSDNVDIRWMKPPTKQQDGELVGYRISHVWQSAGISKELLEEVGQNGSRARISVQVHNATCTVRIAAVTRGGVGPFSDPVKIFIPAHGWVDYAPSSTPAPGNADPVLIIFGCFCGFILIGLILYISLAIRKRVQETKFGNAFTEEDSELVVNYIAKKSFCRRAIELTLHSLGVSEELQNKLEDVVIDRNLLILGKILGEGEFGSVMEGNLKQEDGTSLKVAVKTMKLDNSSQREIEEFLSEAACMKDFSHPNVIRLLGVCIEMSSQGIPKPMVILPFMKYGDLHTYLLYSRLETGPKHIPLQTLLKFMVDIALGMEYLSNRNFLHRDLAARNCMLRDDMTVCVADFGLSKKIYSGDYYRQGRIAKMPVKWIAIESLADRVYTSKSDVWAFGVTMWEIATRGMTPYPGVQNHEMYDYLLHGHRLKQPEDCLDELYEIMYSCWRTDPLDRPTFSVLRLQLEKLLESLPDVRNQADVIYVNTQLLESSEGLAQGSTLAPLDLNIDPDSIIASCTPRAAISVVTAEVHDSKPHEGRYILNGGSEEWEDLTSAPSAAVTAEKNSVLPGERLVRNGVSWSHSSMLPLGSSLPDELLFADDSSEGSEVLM

[13] = test system: Fer (mouse); assay: as above
[14] = target: c-Src SH2; assay: SH2 binding enrichment of the phosphorylated peptide, bacterial display (enrichment ratio); higher = better substrate or ligand; peptides without Tyr show the background
[15] = target: SHP2-C SH2; assay: as above
[16] = target: Grb2 SH2 (UniProt P62993); assay: as above
Sequence of Grb2 SH2 (P62993 whole entry, looked up, the tested form may be a part): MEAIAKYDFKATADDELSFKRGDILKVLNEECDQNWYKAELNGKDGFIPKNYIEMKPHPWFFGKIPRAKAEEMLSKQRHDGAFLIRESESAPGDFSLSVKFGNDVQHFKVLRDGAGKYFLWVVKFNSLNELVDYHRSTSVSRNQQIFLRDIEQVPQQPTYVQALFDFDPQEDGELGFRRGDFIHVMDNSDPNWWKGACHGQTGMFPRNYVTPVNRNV
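Wherever SH2 binding enrichment of the phosphorylated peptide, bacterial display is given: peptide library displayed on the E. coli surface as eCPX fusions, selected cells deep-sequenced, score is each peptide's frequency after selection divided by its frequency in the input.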
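Wherever phosphorylation enrichment, bacterial display is given: 11-residue human phosphosite peptides and single-mutation variants displayed on the E. coli surface, counted by deep sequencing, each peptide's frequency after selection divided by its frequency in the unselected input library; frequency after pTyr selection over input frequency; kinase dosed for 20-30% of maximal phosphorylation in three min.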

Sequence of Hck (P08631 whole entry, looked up): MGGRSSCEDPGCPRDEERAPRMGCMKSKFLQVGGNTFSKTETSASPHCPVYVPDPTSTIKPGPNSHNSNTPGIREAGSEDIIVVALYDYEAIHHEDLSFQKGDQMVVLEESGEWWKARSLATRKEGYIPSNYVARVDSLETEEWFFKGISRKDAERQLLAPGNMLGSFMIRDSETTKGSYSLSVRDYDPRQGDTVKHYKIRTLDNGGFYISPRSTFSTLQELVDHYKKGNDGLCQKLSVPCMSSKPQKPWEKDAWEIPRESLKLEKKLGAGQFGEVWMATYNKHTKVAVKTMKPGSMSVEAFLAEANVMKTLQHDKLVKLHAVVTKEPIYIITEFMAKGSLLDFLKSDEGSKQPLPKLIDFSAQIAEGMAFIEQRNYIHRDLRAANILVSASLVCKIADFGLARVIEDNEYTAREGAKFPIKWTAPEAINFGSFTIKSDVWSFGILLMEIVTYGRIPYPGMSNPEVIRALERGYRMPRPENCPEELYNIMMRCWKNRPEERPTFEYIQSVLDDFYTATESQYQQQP
Sequence of FGFR3 (P22607 whole entry, looked up): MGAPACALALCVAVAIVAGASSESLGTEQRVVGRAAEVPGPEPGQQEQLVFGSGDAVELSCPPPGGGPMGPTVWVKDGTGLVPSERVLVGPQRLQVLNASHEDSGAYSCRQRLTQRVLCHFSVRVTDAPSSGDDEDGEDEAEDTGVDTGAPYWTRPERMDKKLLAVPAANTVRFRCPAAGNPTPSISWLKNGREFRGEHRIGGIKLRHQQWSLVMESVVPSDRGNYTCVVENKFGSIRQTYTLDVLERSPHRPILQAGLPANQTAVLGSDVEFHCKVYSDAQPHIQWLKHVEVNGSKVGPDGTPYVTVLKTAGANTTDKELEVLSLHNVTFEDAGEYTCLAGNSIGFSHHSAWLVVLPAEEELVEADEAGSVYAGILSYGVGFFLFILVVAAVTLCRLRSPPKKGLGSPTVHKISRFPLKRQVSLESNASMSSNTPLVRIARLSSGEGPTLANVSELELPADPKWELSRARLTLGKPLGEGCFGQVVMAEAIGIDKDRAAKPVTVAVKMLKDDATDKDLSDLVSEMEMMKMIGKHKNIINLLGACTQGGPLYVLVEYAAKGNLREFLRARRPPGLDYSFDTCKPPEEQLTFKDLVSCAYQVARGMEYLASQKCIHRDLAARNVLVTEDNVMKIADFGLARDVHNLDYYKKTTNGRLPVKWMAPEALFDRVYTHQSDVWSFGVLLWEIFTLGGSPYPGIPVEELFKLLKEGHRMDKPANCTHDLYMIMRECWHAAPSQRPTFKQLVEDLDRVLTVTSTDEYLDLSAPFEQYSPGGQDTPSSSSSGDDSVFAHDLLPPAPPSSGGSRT

Row | Sequence | phosphorylation enrichment [1] | phosphorylation enrichment [2] | phosphorylation enrichment [3] | phosphorylation enrichment [4] | phosphorylation enrichment [5] | phosphorylation enrichment [6] | phosphorylation enrichment [7] | phosphorylation enrichment [8] | phosphorylation enrichment [9] | phosphorylation enrichment [10] | phosphorylation enrichment [11] | phosphorylation enrichment [12] | phosphorylation enrichment [13] | SH2 binding enrichment [14] | SH2 binding enrichment [15] | SH2 binding enrichment [16]
1 | RASGIYFVPKG [APBB1IP_Y340_YF] | 8.1 | 1.71 | 34.3 | 1.71 | 5.1 | 2.91 | 1.2 | 6.15 | 4.75 | 2.37 | 1.17 | 13.8 | 0.731 | 0.935 | 1.11 | 1.12
2 | RDGDRYFKGIV [DCX_Y64_N60D] | 0.437 | 0.491 | 0.485 | 0.574 | 0.343 | 0.609 | 1.1 | 0.308 | 0.382 | 0.427 | 0.427 | 0.374 | 0.316 | 0.537 | 0.606 | 1.16
3 | RDLRTYIMPAH [PNMT_Y256] | 0.682 | 0.518 | 0.772 | 0.694 | 5.27 | 0.893 | 0.866 | 0.577 | 0.623 | 0.815 | 0.921 | 0.572 | 0.419 | 0.777 | 0.734 | 0.965
4 | REGAKYVSHSA [ASS1_Y113_G117S] | 0.457 | 0.854 | 0.818 | 0.473 | 0.414 | 0.691 | 0.785 | 0.454 | 0.667 | 0.468 | 0.764 | 0.593 | 0.504 | 0.473 | 0.561 | 0.878
5 | REHTVYGEPRK [MAGEA4_Y240] | 0.903 | 0.684 | 1.03 | 0.664 | 0.588 | 0.674 | 0.851 | 0.869 | 0.599 | 0.687 | 0.716 | 0.492 | 0.52 | 0.443 | 0.54 | 0.765
6 | RESYKYLPSSL [CXXC1_Y218_F219L] | 0.762 | 0.821 | 1.25 | 1.21 | 0.571 | 1.11 | 1.17 | 0.59 | 0.993 | 0.616 | 1.09 | 0.859 | 0.546 | 0.582 | 0.791 | 1.1
7 | REVVNYVQKRS [RMI1_Y450_N455S] | 0.484 | 0.835 | 0.519 | 0.65 | 0.459 | 0.468 | 1.01 | 0.581 | 0.564 | 0.35 | 0.981 | 0.68 | 0.525 | 0.515 | 0.511 | 0.826
8 | RFLERYIYNRE [HLA-DPB1_Y57] | 1.73 | 0.784 | 0.533 | 0.495 | 0.852 | 0.451 | 0.949 | 0.842 | 0.849 | 0.683 | 0.77 | 0.533 | 0.546 | 1.28 | 1.45 | 1.3
9 | RFLFFYSFLLK [PTEN_Y178_V175L_YF] | 0.631 | 0.754 | 1.51 | 0.885 | 0.984 | 1.53 | 1.78 | 0.79 | 1.41 | 0.574 | 2.12 | 0.782 | 0.765 | 0.808 | 1.29 | 1.58
10 | RGEEPYTKKAL [TTC21B_Y160_K157E] | 0.719 | 0.714 | 0.487 | 0.771 | 0.413 | 0.473 | 0.991 | 0.481 | 0.383 | 0.476 | 0.715 | 0.491 | 0.552 | 0.4 | 0.634 | 0.542
11 | RGGWVYVLHPT [TRMT61A_Y67] | 0.909 | 1.03 | 0.702 | 0.853 | 1.07 | 1.2 | 1.66 | 1.25 | 0.895 | 0.856 | 1.8 | 0.493 | 0.766 | 0.573 | 0.787 | 0.99
12 | RGVAHYILQTF [SLC39A4_Y359_T357A] | 0.685 | 0.628 | 1.13 | 0.456 | 0.718 | 1.33 | 1.34 | 0.636 | 0.743 | 0.724 | 1.48 | 0.583 | 0.554 | 1.16 | 1.71 | 1.73
13 | RHAASYSSDSE [REPS1_Y116] | 0.41 | 0.611 | 0.627 | 0.513 | 0.382 | 1.19 | 0.806 | 0.737 | 0.607 | 0.381 | 0.702 | 0.51 | 0.578 | 0.569 | 0.735 | 0.985
14 | RHIEKYVDQGK [IRAK3_Y61] | 0.74 | 0.633 | 0.783 | 0.512 | 0.577 | 0.857 | 0.833 | 0.533 | 0.687 | 0.318 | 0.771 | 0.59 | 0.593 | 0.605 | 0.834 | 0.993
15 | RIAFQYGDTDL [MYBPC3_Y340_V342D] | 0.432 | 0.737 | 0.735 | 0.703 | 0.743 | 0.784 | 1.24 | 0.81 | 0.381 | 0.825 | 1.1 | 0.544 | 0.689 | 0.577 | 0.742 | 0.954
16 | RIVTTYIRERE [DNM2_Y463] | 0.874 | 0.682 | 0.741 | 0.616 | 0.477 | 0.795 | 1.06 | 0.811 | 0.499 | 0.75 | 1.12 | 0.758 | 0.649 | 0.518 | 0.655 | 0.71
17 | RLLRGYRQDAF [HLA-A_Y137_F133L_YF] | 0.604 | 0.676 | 0.807 | 0.547 | 0.809 | 0.854 | 0.981 | 0.678 | 0.819 | 0.334 | 1.22 | 0.647 | 0.659 | 0.465 | 0.965 | 0.762
18 | RLLVVYPWTRR [HBB_Y36_Q40R] | 1.14 | 0.823 | 0.577 | 0.567 | 0.505 | 0.469 | 0.626 | 0.523 | 0.68 | 0.597 | 0.683 | 0.64 | 0.407 | 0.465 | 0.448 | 0.506
19 | RLQEGYDHSYY [ESD_Y258] | 0.611 | 0.928 | 1.11 | 0.715 | 0.717 | 1.05 | 1.01 | 0.645 | 1.06 | 0.53 | 1.21 | 0.597 | 0.573 | 1.4 | 1.05 | 0.939
20 | RLRKFHLGKFL [KLB_Y906_Y906H_YF] | 0.63 | 0.651 | 0.948 | 0.417 | 1.17 | 0.698 | 1.13 | 0.574 | 0.792 | 1.16 | 1.06 | 0.969 | 0.415 | 0.303 | 0.406 | 0.229
21 | RLSELYLRRNR [CFAP410_Y68] | 0.827 | 0.875 | 1.1 | 0.703 | 0.94 | 0.934 | 1.14 | 0.878 | 0.931 | 0.807 | 1.3 | 1.04 | 0.57 | 0.344 | 0.585 | 0.736
22 | RLSVDYGKKSK [TUBA3E_Y161_S162G] | 0.511 | 0.642 | 0.553 | 0.534 | 0.471 | 0.922 | 0.879 | 0.702 | 0.396 | 0.671 | 0.613 | 0.389 | 0.377 | 0.83 | 0.843 | 1.04
23 | RNAAEYPLSSG [ABL1_Y139_L140P] | 0.596 | 0.485 | 0.647 | 0.445 | 0.337 | 0.41 | 0.898 | 0.401 | 0.522 | 0.345 | 0.426 | 0.453 | 0.402 | 0.497 | 0.354 | 0.865
24 | RNVYYYSYLLK [PTEN_Y178_Y174N] | 5.15 | 8.38 | 9.24 | 9.89 | 8.15 | 8.72 | 2.56 | 3.94 | 7.3 | 5.19 | 3.58 | 11.5 | 1.59 | 1.61 | 2.1 | 1.5
25 | RPPFTYATLIR [FOXP3_Y342] | 2.58 | 0.813 | 0.686 | 0.913 | 1.64 | 1.29 | 1.01 | 2.14 | 3.29 | 0.737 | 1.14 | 1.01 | 0.55 | 1.25 | 6.22 | 1.37
26 | RQEEEYKRLSE [SFSWAP_Y133] | 0.888 | 1.22 | 1.43 | 0.693 | 0.574 | 2.31 | 2.21 | 1.02 | 1.2 | 1.15 | 2.53 | 0.804 | 0.892 | 0.469 | 0.539 | 1.02
27 | RQRTAYFSLDT [CDH1_Y68] | 0.357 | 0.504 | 0.752 | 0.586 | 0.426 | 0.691 | 0.767 | 0.38 | 0.533 | 0.293 | 0.669 | 0.535 | 0.414 | 1.74 | 11.3 | 0.928
28 | RRAKGYPIFLF [ITGB2_Y125_D128Y_YF] | 0.548 | 0.63 | 0.854 | 0.561 | 0.351 | 1.12 | 0.741 | 0.624 | 0.857 | 0.739 | 0.632 | 0.524 | 0.581 | 0.582 | 0.679 | 0.62
29 | RRGTRYMSSRP [RPL21_Y13_F15S] | 0.621 | 0.633 | 0.527 | 0.551 | 0.481 | 0.699 | 0.473 | 0.772 | 0.947 | 0.499 | 0.439 | 0.57 | 0.578 | 0.489 | 0.533 | 0.964
